According to the nanobody polyreactivity screen of Harvey et al. (2022):

Experiment: yeast display, Sf9 membrane polyspecificity reagent, FACS + sequencing; frameworks hold sequencing errors
Procedure, shortened: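 Genes from sorted yeast were amplified by colony PCR, read by MiSeq 2 × 250 sequencing and filtered on CDR length. These cells carried a synthetic nanobody library in Saccharomyces cerevisiae BJ5465 and were sorted by FACS into low and high (top ~1%) gates on anti-HA and streptavidin fluorescence. Polyreactivity is labelled according to the gate of origin.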

Sequence | polyreactivity (PSR sort gate)
QVQLVESCGGLVQAGGSLRLSCAAYGSIFTFYAMGWYRQAPGKERELVAAISSGGDTYYADSVTGRFTISRDNAKNTVYLQMNSLKPEDTAVYYCAADWRGSYLYGYYYWGQGTQVTASS | low polyreactivity
QVQHVESGGGLVQAGGSLRLSCAASVSIFEYYAMGWDRRAHGKERELVARITDSGGSTYADSVKGRFTISRDNAKNTVYLQMSSLKPEDTAVYYCAADDNYFDFDYWGQGTQVTVSS | low polyreactivity
QVQLVDSGGGLVQAGGSLRLSCAASGRTIGFYAMGWYRQAPGKERELVAAINRSGDSTYYADSVKGRFTISRDNAKNTVYLQMNSLKPEDTAVYYCAASYGYRYEYWGQGTQVTVSS | high polyreactivity
QVQLVESGGGLVQAGGSLSLSCAASGRIFYVNTMGWYRQAPGKERELVATISSAASTNYADSVKGRFTISRDNAKNTVYLQMNSLKPEDTAVYYCNASRLSRLSALSGFYSWGQGTQVTVSS | low polyreactivity
QVQLVESGGGLVQAGGSLRLSCAASGSIFGGYAMGWYRQAPGKERELVATSYADSVKGRFTISRDIAKNTVYLQMNSLKPEDTAVYYCAADPPLEGVHGYNYWGQGTQVTVSS | low polyreactivity
QVQLVESGGGLVQAGGSLRLSCAASGIILPYYAMGWYRQAPGKEREIVATISSDGTSTYYADSVKGRFTISRDNAKNTVYLQMNSLKPEDTAVYYCAARIRQNPGGDNSWGQGTQVTVSS | low polyreactivity
QVQLVESGGGLVQAGGSLRLSCAASGSILNRYAMGWYRQAPGKERELVAAISRRSGSTYYADSVKGRFTISRDNAKNTVYLQMNSLKPEDTAVYYCAATSSLGDFRYDYWGQGTQVTVSS | high polyreactivity
QVQLVESGGGLVQAGGSLRLSCAASGRTFPRNGMGWYRPAPGQERELVAAIRYSGGSTYYADSVKGRFTISRDNAKNTVYLQMNSLKPEDTAVYYCAAEYRRALGVDYWGQGTQVTVSS | high polyreactivity
QVQLVESGGGLVQAGGSLRLSCAASGRTSLRYAMGWYRQAPGKERELVAAIRYGGGSTRYADSVKGRFTISRDNAKNTVYLQMNSLKPEDTAVYYCAARYFPRIQYGRKGYDYWGQGTQVTVSS | low polyreactivity
QVQLEESGGGLVQAGCSLRLSCAASGRIFHFYAIGRYRQAPGKERELVAVINGGGSTYYADSVKGRFTISRDNAKNTVYLQMNSLKPEVTAVYYCAADVYLSRYEKYGYWGQGTQVTVSS | high polyreactivity
QVQLVESGGGLVQAGGSLRLICDASGNTIIRYAMGWYRQGPGKERELVAAISYSGGRTYYADSVKGRFTISRDNAKNTVYLQMNSLKTEVTAVYYCNAASRYGCDYWRQGTQVTVSS | high polyreactivity
QVQLVESGGGLVQAGGSLRLSCAASGRIFGNNAMGWYRQAPGKERELVAAIRSRGTRTYYADSVKGRFTISRDNAKNTVYLQMNSLKPEDTAVYYCATTSLTGRYDRYDYWGQGTQVTVSS | high polyreactivity
QVQLVESGGGLVQAGGSLRLSCAASGRIFPYYAMGRYRQAPGKERELVARITRNGGTTYYADSVKGRFTISRDNAKNTVYLQMNSLKPEDTAVYYCAATYSVPYYRSWPEYDYWGQGTQVTVSS | high polyreactivity
QVQRVESGGGLVQAGGSLRLSCAASGRTFWRNAMGWYRQAPGKERELVARISWSGGSTYYADSVKGRFTISRDNAKNTVYLQMNSLKPEDTAVYYCAKYYPGRSAFSDGNYWVQGTQVTVSS | low polyreactivity
QVQLVESGVGLVQAGGRLRLICAASGITFGPNALGWYRQAPGKERELVAAISWRGGSTYNADSVKGRFTISRDNGKNTVYLQMNSLKPEDTAVYYCAADLAYGAMVYWGQGTQVTVSS | low polyreactivity
QVQLVESGGGLVQAGGSLRLSCAASGRTFGQYAMGWYRQAPGKERQLVAAISTRGGSTYYADSVKGRFTISRDNAKNTVYLQMNSLKPEDTAVYYCAARPGWFAGYEYWGQGTQVTVSS | low polyreactivity
QVQLVESGGGLFQAGGSLRLSCAASGSTFGWNAMGWYRHAPGKERELVAAINKSGGRTYYADSVKGRFTISRDNAKNTVYLQMISLKPEDTAVYYCAAVTPIRVTSPDYDYWGQGTQVTVSS | low polyreactivity
